Data on one substance can be found in PMC6992714.

For the assay, the target named is BphP1-iB(GFP) (Rhodopseudomonas palustris | not stated). The assay is described as follows: light-induced relocalisation in live cells (epifluorescence microscopy); HeLa co-expressing BphP1-iB(GFP), mVenus-CAAX and mCherry-QPAS1; darkness against 740 nm light (1 mW cm^-2), 37 °C; mCherry signal moves from cytoplasm to plasma membrane.

As to mCherry-QPAS1, the half-time of the relocalisation from cytoplasm to plasma membrane came out at 33.6 s.
